In patent US6623741:
Where “and” joins values, the source holds several entries; their conditions need not be identical. Equal values may be shown once. Read-outs that look alike come from different tables or passages of the source.

Columns and labels:
[1] = molecular target: T1582 (respiratory syncytial virus (strain A2)); assay: sedimentation equilibrium, 35 µM peptide (self-association)
[2] = molecular target: T1582 (respiratory syncytial virus (strain A2)); assay: sedimentation equilibrium, 35 µM peptide, single ideal species fit (self-association); monomer 4897
[3] = molecular target: T1623 (respiratory syncytial virus (strain A2)); assay: sedimentation equilibrium, 35 µM peptide (self-association)
[4] = molecular target: T1623 (respiratory syncytial virus (strain A2)); assay: sedimentation equilibrium, 35 µM peptide, single ideal species fit (self-association); monomer 5750
[5] = molecular target: T1584 (respiratory syncytial virus (strain A2)); assay: sedimentation equilibrium, 35 µM peptide (self-association)
[6] = molecular target: T1584 (respiratory syncytial virus (strain A2)); assay: sedimentation equilibrium, 35 µM peptide, single ideal species fit (self-association); monomer 5506
[7] = molecular target: T1, MF-IV (MF5.1): E. coli maltose binding protein fused to RSV F protein residues 142-302 (E. coli; respiratory syncytial virus (strain A2)), P03420
T1 chain: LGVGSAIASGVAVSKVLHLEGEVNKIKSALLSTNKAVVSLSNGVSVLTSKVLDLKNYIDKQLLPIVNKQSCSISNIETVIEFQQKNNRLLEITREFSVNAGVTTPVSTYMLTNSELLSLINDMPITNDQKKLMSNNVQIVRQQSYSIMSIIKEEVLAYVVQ

[8] = molecular target: T1, MF-IV (MF5.1): E. coli maltose binding …; assay: competitive binding assay (B50) on the MF5.1 fusion protein; reference T112
[9] = molecular target: T1772 (respiratory syncytial virus (strain A2))
[10] = molecular target: T1772 (respiratory syncytial virus (strain A2)); remark: listed apart in the source
[11] = molecular target: T112 (respiratory syncytial virus (strain A2))
[12] = molecular target: T1772 (respiratory syncytial virus (strain A2)); remark: listed apart in the source
[13] = molecular target: T1772 (respiratory syncytial virus (strain A2)); remark: listed apart in the source
[14] = molecular target: T1772 (respiratory syncytial virus (strain A2)); remark: listed apart in the source
[15] = molecular target: T1772 (respiratory syncytial virus (strain A2)); assay: sedimentation equilibrium (self-association)
[16] = molecular target: T1772 (respiratory syncytial virus (strain A2)); assay: sedimentation equilibrium, value at 25 µM, single ideal species fit (self-association); monomer 5393
[17] = molecular target: T1581 (respiratory syncytial virus (strain A2)); assay: sedimentation equilibrium, 35 µM peptide (self-association)
[18] = molecular target: T1581 (respiratory syncytial virus (strain A2)); assay: sedimentation equilibrium, 35 µM peptide, single ideal species fit (self-association); monomer 5007

B1: T1582 (peptide)
peptide: VLHLEGEVNKIKSALLSTNKAVVSLSNGVSVLTSKVLDLKNYIDK
modifications: not checked
B1 was tested, and the N-mer (weight-averaged molecular weight / monomer molecular weight) [1] was 1.5 and the weight-averaged molecular weight [2] was 7520 g/mol.

B2: T1623 (peptide)
peptide: SGVAVSKVLHLEGEVNKIKSALLSTNKAVVSLSNGVSVLTSKVLDLKNYIDKQL
modifications: not checked
Work on B2 yielded a N-mer (weight-averaged molecular weight / monomer molecular weight) [3] of 2.2 and a weight-averaged molecular weight [4] of 12900 g/mol.

B3: T1584 (peptide)
peptide: AVSKVLHLEGEVNKIKSALLSTNKAVVSLSNGVSVLTSKVLDLKNYIDKQL
modifications: not checked
B3 gave a N-mer (weight-averaged molecular weight / monomer molecular weight) [5] of 2.1 and a weight-averaged molecular weight [6] of 11700 g/mol.

B4: T67 (peptide)
peptide: DEFDASISQVNEKINQSLAFIRKSDELL
modifications: not checked
B4 was tested, and the binding affinity [7] was 5 nM and the fold lower binding affinity than T112 [8] was 5 fold.

B5: T112 (peptide)
peptide: VFPSDEFDASISQVNEKINQSLAFIRKSDELLHNV
modifications: not checked
With B5 the weight-averaged molecular weight of the mixture [9] was 15300 Da and 22000 Da and 17300 Da, the weight-averaged molecular weight of the mixture [10] was 21100 Da and the weight-averaged molecular weight [11] was 3980 Da. It also gave a helicity of the peptide mixture [12] of 86% and a melting temperature (Tm) of the peptide mixture [13] of 87 ° C.

B6: T1772 (peptide)
peptide: AVSKVLHLEGEVNKIKSALLSTNKAVVSLSNGVSVLTSKVLDLKNYIDKQ
modifications: not checked
Binder B6 has a weight-averaged molecular weight [14] of 12900 Da, a N-mer (weight-averaged molecular weight / monomer molecular weight) [15] of 2.4 and a weight-averaged molecular weight [16] of 12900 g/mol.

B7: T1581 (peptide)
peptide: VLHLEGEVNKIKSALLSTNKAVVSLSNGVSVLTSKVLDLKNYIDKQ
modifications: not checked
B7 showed a N-mer (weight-averaged molecular weight / monomer molecular weight) [17] of 1.8 and a weight-averaged molecular weight [18] of 9120 g/mol.
